Assay results published in the supplement of paper PMC11316812.
± gives the standard deviation of the averaged measurements.

How the values were obtained:
MCF7 = experiment: percentage of EdU-negative (G0-arrested) nuclei per well, 72 h; higher = more G0 arrest; conditions: reference: sequence is the full UniProt precursor, the tested protein was the secreted form or ectodomain
hTERT-HMEC = experiment: as above; conditions: reference: sequence is the full UniProt precursor, the tested protein was the secreted form or ectodomain
[1] = protein concentration 0.0225 µM
[2] = protein concentration 0.0257143 µM
[3] = protein concentration 0.257143 µM
[4] = protein concentration 0.03125 µM
[5] = protein concentration 0.3125 µM
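Note: secreted proteins added to cultured cells, EdU pulse at the end, nuclei found by Hoechst imaging, EdU status from nuclear versus surrounding ring intensity ratio, PBS as neutral control.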

Sequence	percentage of EdU-negative (MCF7; [1]) [%]	percentage of EdU-negative (MCF7; protein concentration 0.225 µM) [%]	percentage of EdU-negative (hTERT-HMEC; [1]) [%]	percentage of EdU-negative (hTERT-HMEC; protein concentration 0.225 µM) [%]	percentage of EdU-negative (MCF7; [4]) [%]	percentage of EdU-negative (MCF7; [5]) [%]	percentage of EdU-negative (hTERT-HMEC; [4]) [%]	percentage of EdU-negative (hTERT-HMEC; [5]) [%]	also measured
MALRRLGAALLLLPLLAAVEETLMDSTTATAELGWMVHPPSGWEEVSGYDENMNTIRTYQVCNVFESSQNNWLRTKFIRRRGAHRIHVEMKFSVRDCSSIPSVPGSCKETFNLYYYEADFDSATKTFPNWMENPWVKVDTIAADESFSQVDLGGRVMKINTEVRSFGPVSRSGFYLAFQDYGGCMSLIAVRVFYRKCPRIIQNGAIFQETLSGAESTSLVAARGSCIANAEEVDVPIKLYCNGDGEWLVPIGRCMCKAGFEAVENGTVCRGCPSGTFKANQGDEACTHCPINSRTTSEGATNCVCRNGYYRADLDPLDMPCTTIPSAPQAVISSVNETSLMLEWTPPRDSGGREDLVYNIICKSCGSGRGACTRCGDNVQYAPRQLGLTEPRIYISDLLAHTQYTFEIQAVNGVTDQSPFSPQFASVNITTNQAAPSAVSIMHQVSRTVDSITLSWSQPDQPNGVILDYELQYYEKELSEYNATAIKSPTNTVTVQGLKAGAIYVFQVRARTVAGYGRYSGKMYFQTMTEAEYQTSIQEKLPLIIGSSAAGLVFLIAVVVIAIVCNRRGFERADSEYTDKLQHYTSGHMTPGMKIYIDPFTYEDPNEAVREFAKEIDISCVKIEQVIGAGEFGEVCSGHLKLPGKREIFVAIKTLKSGYTEKQRRDFLSEASIMGQFDHPNVIHLEGVVTKSTPVMIITEFMENGSLDSFLRQNDGQFTVIQLVGMLRGIAAGMKYLADMNYVHRDLAARNILVNSNLVCKVSDFGLSRFLEDDTSDPTYTSALGGKIPIRWTAPEAIQYRKFTSASDVWSYGIVMWEVMSYGERPYWDMTNQDVINAIEQDYRLPPPMDCPSALHQLMLDCWQKDRNHRPKFGQIVNTLDKMIRNPNSLKAMAPLSSGINLPLLDRTIPDYTSFNTVDEWLEAIKMGQYKESFANAGFTSFDVVSQMMMEDILRVGVTLAGHQKKILNSIQVMRAQMNQIQSVEGQPLARRPRATGRTKRCQPRDVTKKTCNSNDGKKKGMGKKKTDPGRGREIQGIFFKEDSHKESNDCSCGG [Q6NVW1]	25.8 ± 2.3	26.5 ± 1	5.5 ± 0.22	8.19 ± 1					
MALRRPPRLRLCARLPDFFLLLLFRGCLIGAVNLKSSNRTPVVQEFESVELSCIITDSQTSDPRIEWKKIQDEQTTYVFFDNKIQGDLAGRAEILGKTSLKIWNVTRRDSALYRCEVVARNDRKEIDEIVIELTVQVKPVTPVCRVPKAVPVGKMATLHCQESEGHPRPHYSWYRNDVPLPTDSRANPRFRNSSFHLNSETGTLVFTAVHKDDSGQYYCIASNDAGSARCEEQEMEVYDLNIGGIIGGVLVVLAVLALITLGICCAYRRGYFINNKQDGESYKNPGKPDGVNYIRTDEEGDFRHKSSFVI [Q9BX67]	21.3 ± 0.85	24.5 ± 2.1	4.86 ± 0.27	5.13 ± 0.74					
MALRRSMGRPGLPPLPLPPPPRLGLLLAALASLLLPESAAAGLKLMGAPVKLTVSQGQPVKLNCSVEGMEEPDIQWVKDGAVVQNLDQLYIPVSEQHWIGFLSLKSVERSDAGRYWCQVEDGGETEISQPVWLTVEGVPFFTVEPKDLAVPPNAPFQLSCEAVGPPEPVTIVWWRGTTKIGGPAPSPSVLNVTGVTQSTMFSCEAHNLKGLASSRTATVHLQALPAAPFNITVTKLSSSNASVAWMPGADGRALLQSCTVQVTQAPGGWEVLAVVVPVPPFTCLLRDLVPATNYSLRVRCANALGPSPYADWVPFQTKGLAPASAPQNLHAIRTDSGLILEWEEVIPEAPLEGPLGPYKLSWVQDNGTQDELTVEGTRANLTGWDPQKDLIVRVCVSNAVGCGPWSQPLVVSSHDRAGQQGPPHSRTSWVPVVLGVLTALVTAAALALILLRKRRKETRFGQAFDSVMARGEPAVHFRAARSFNRERPERIEATLDSLGISDELKEKLEDVLIPEQQFTLGRMLGKGEFGSVREAQLKQEDGSFVKVAVKMLKADIIASSDIEEFLREAACMKEFDHPHVAKLVGVSLRSRAKGRLPIPMVILPFMKHGDLHAFLLASRIGENPFNLPLQTLIRFMVDIACGMEYLSSRNFIHRDLAARNCMLAEDMTVCVADFGLSRKIYSGDYYRQGCASKLPVKWLALESLADNLYTVQSDVWAFGVTMWEIMTRGQTPYAGIENAEIYNYLIGGNRLKQPPECMEDVYDLMYQCWSADPKQRPSFTCLRMELENILGQLSVLSASQDPLYINIERAEEPTAGGSLELPGRDQPYSGAGDGSGMGAVGGTPSDCRYILTPGGLAEQPGQAEHQPESPLNETQRLLLLQQGLLPHSSC									percentage of EdU-negative (MCF7; [2]): 25.83 ± 0.093%; percentage of EdU-negative (MCF7; [3]): 27.3 ± 1.4%; percentage of EdU-negative (hTERT-HMEC; [2]): 3.99 ± 0.11%; percentage of EdU-negative (hTERT-HMEC; [3]): 5.87 ± 0.091%
MALRVVRSVRALLCTLRAVPSPAAPCPPRPWQLGVGAVRTLRTGPALLSVRKFTEKHEWVTTENGIGTVGISNFAQEALGDVVYCSLPEVGTKLNKQDEFGALESVKAASELYSPLSGEVTEINEALAENPGLVNKSCYEDGWLIKMTLSNPSELDELMSEEAYEKYIKSIEE	25.5 ± 2.2	26.3 ± 3.4	4.5 ± 0.0069	10.4 ± 2.3					
MALSFSLLMAVLVLSYKSICSLGCDLPQTHSLGNRRALILLAQMGRISHFSCLKDRHDFGFPEEEFDGHQFQKAQAISVLHEMIQQTFNLFSTEDSSAAWEQSLLEKFSTELYQQLNDLEACVIQEVGVEETPLMNEDSILAVRKYFQRITLYLTEKKYSPCAWEVVRAEIMRSLSFSTNLQKRLRRKD					40.1 ± 1.1	46.8 ± 1.5	9.16 ± 2.3	13.8 ± 2.7	
MALSFSLLMAVLVLSYKSICSLGCDLPQTHSLGNRRALILLAQMGRISHFSCLKDRYDFGFPQEVFDGNQFQKAQAISAFHEMIQQTFNLFSTKDSSAAWDETLLDKFYIELFQQLNDLEACVTQEVGVEEIALMNEDSILAVRKYFQRITLYLMGKKYSPCAWEVVRAEIMRSFSFSTNLQKGLRRKD					47.8 ± 1.4	49.2 ± 3.4	11.7 ± 1.5	18.9 ± 0.54	
